Results taken from publication PMC8924901 (Journal of molecular biology, 2021).

Biological target: T1, rat PLCγ1 isolated cSH2 domain (H663-E759) (rat, UniProt P10686 663-759)
T1 sequence (looked up): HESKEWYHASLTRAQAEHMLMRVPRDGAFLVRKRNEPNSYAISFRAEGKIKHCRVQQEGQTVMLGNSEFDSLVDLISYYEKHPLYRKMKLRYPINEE
Assay: NMR titration

B1: rat PLCγ1 isolated split PH (sPH) domain (D485-N529/N865-R936 with a C-terminal 6X-His tag) (domain or fragment, UniProt P10686 485-529, looked up)
chain: DISNSIKNGILYLEDPVNHEWYPHYFVLTSSKIYYSEETSSDQGNNSPLGDLLRGVLDVPACQIAIRPEGKNNRLFVFSISMPSVAQWSLDVAADSQEELQDWVKKIREVAQTADAR
B1: binds.
